Measurements published in US20250051458A1, “Methods for Treating Neurodegeneration Targeting IGF1/IGF1R” (The Schepens Eye Research Institute, Inc., priority 2021, published 2025).

Tested on: retinal microglia
Assay: Bulk RNA-seq gene profiling of isolated retinal microglial cultures, with or without LPS
Type: cell-based, mouse
Method: We performed RNA-seq using four Igfbpl1−/− mice retina and four WT mice retina. The raw data was quality controlled and aligned on Mus musculus (mouse) reference genome (GRCm38) with STAR v2.5.0a (PMID: 23104886), FeatureCount (v0.6.1) (PMID: 24227677) was used to count the number of read mapped to each gene. Transcripts Per Million (TPM) was calculated for each gene based on the length of the gene and reads mapped to that gene. Differential expression analysis between Igfbpl1^−/− and WT mice was performed using the DESeq2 R package (v1.22.2) (PMID: 25516281). gene set over representation analysis for the differentially expressed genes was performed with the same above described method. We also downloaded lists of genes with function related to “Microglia”, “Astroglia”, “neuron”, and “photoreceptor” from genecard (www.genecards.org) with relevance score>5, and determined the percentage of and calculated the proportion of differentially expressed genes in each of those gene lists. […]
To investigate if IGFBPL1 directly mediates microglial function, we studied gene profiling changes in isolated microglial cultures treated by IGFBPL1. Retinal microglia were purified from mice expressing green fluorescence protein (GFP) driven under a microglial specific promoter Cx3cr1 (Cx3cr1-Gfp) using fluorescence-activated cell sorting (FACS)^12. […]

B1: IGFBPL1: insulin-like growth factor binding protein like protein 1; recombinant protein (R&D system, 4130-BL) (protein)
chain: LGLRDAGRRHPECSPCQQDRCPAPSPCPAPWISARDECGCCARCLGAEGASCGGPVGSRCGPGLVCASRASGTAPEGTGLCVCAQRGAVCGSDGRSYSSICALRLRARHAPRAHHGHLHKARDGPCEFAPVVLMPPRDIHNVTGTQVFLSCEVKAVPTPVITWKKVKHSPEGTEGLEELPGDHVNIAVQVRGGPSDHETTSWILINPLRKEDEGVYHCHAANAIGEAQSHGTVTVLDLNRYKSLYSSVPGDLL
Reversal of LPS-induced microglial gene profile (bulk RNA-seq) (IGFBPL1 added 6 hr after LPS stimulation): completely reverted LPS-induced microglial gene profile to the control level | Microglial gene profile versus vehicle controls (bulk RNA-seq) (IGFBPL1 alone, no LPS): no different between cultures treated with IGFBPL1 alone and vehicle controls
